Laboratory results published in the domain aggregation screens of Martell et al. (2025).
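Also: 20 min heating vs room temperature control held 20 min.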

Experiment: soluble fraction after stress (log2 fold change); higher = more stays soluble; pooled small domains, quantitative proteomics
Conditions: stress: 75 degC
For “HMSDAVQLGLRLRAARERRGLSQQAVADALGLPRTAVTNMESGNRAVSTLELTKLAALYGQSTAFFLSP”, the “soluble fraction (log2)” value was -1.19. For “HMSDDVELLGRLSDREVSVLQYLSQGYSNKQISEQMFISNKTVSTYKARLLLKLNAGSLVDLIEFAKRNTL”, the “soluble fraction (log2)” value was -1.35. For “HMSDEINYVIQINGKNRAEAEFGANLDKESIENLALEHERIKELLNGLTVRKIIVVPKKLVNIVA”, the “soluble fraction (log2)” value was -0.556. For “HMSDESALLELVKQIIADNPKAVEEIRAGKEKAMGFLIGQAMKASRGSANPQIISRLVREQLG”, the “soluble fraction (log2)” value was 0.57. For “HMSDFDPTLILDLIKGSGEALTKREIARALGIKGGDKRIELKSHLKSMEAEGVIVKQAGGAYSVP”, the “soluble fraction (log2)” value was -0.132. For “HMSDFSNLNLLELNSSELDLLLRRASSQGLTQMDLLKMARSQGLSEADLIKVKGKIDTSESIKR”, the “soluble fraction (log2)” value was 0.076. In the case of “HMSDFSSNLRRLRKRAGLSQDALAEKLSVARQTVSSWERGNSYPDLDMLVRISDALATDPNELLYPN”, the “soluble fraction (log2)” value is reported as -0.167. In the case of “HMSDGDFLQKIAEEILAQFPDKVKEYQKGKKGLIGFFMGELMKRSKGKADPKVATRILEEILSEKNGSS”, the “soluble fraction (log2)” value is reported as -0.0745. For “HMSDGTVYGSDGVIKVNLPQSGMLRIYATDGTTLVNRWQAAGIDTISMPRGLYIVRFDNQVWKVVV”, the “soluble fraction (log2)” value was -1.65. In the case of “HMSDHSSLAGKEGVAVTPLRPAGTAEIDGKRMDVVTMGDYIKAGDHIKVVKVEGNRIIVAKN”, the “soluble fraction (log2)” value is reported as 0.0173. For “HMSDHYEVLGVDRNATDDQIKKAYRRLARELHPDVNDAPESQEKFKLVTHAYEVLSDPDERRKYDMG”, the “soluble fraction (log2)” value was -0.0229. For “HMSDIYSLFERELGRTLSSYEYEIIGKWIEKGVSEDTIKRALKEAILNGVTNFKYIDKIIYDWSKN”, the “soluble fraction (log2)” value was -0.622. For “HMSDLFKYSPYKTLTEEQYKITYQIIERLKTDLSNGIPRISIIDGGAGTGKSILGIFLLKLLVDAQN”, the “soluble fraction (log2)” value was 0.353. With “HMSDNLSASERKALSHMEGMESVRSSEVADLLGMSQRGAQKLLNRLVDKGLASSFGANRNRRYSVE” the “soluble fraction (log2)” value was 0.144. With “HMSDNLTIVRAVYSGLSQRQAAATYHVSRNTVSLLLRHARNRGWLTLEDLAQLDNAAFSKSL” the “soluble fraction (log2)” value was -4.32. For “HMSDPFSPTTTLKNRAKSVLSVDSFEDFKLFIKKMWQEKKEGVYQNPNVETWKDWDNISVKDAKILISLI”, the “soluble fraction (log2)” value was -1.45. In the case of “HMSDPHEELMSRIARDLSIPLTRVVAEMNTIISKEFGGHIRPEGAVVILAKRSGVEFSDLLPALRENILK”, the “soluble fraction (log2)” value is reported as -1.92. In the case of “HMSDQIQQIAERIAGLRDIAGYSVEELARELGISAEEYKRYESGEVDIPIGFLYKLANKYNVELTAILT”, the “soluble fraction (log2)” value is reported as -0.289. For “HMSDRFLDQEGVALSTLRPSGTVVLDSGEHLDVVTRGEFIEQGERVKVIKAESTWYVVEQIN”, the “soluble fraction (log2)” value was 0.112. With “HMSDRLRLGRRIRAARLEQNLSQAALAERLGISASYLNLLEHDRRSLTTVLLLKLAQVLGLELRDLAAG” the “soluble fraction (log2)” value was -2.49. For “HMSDRLRPGDMVVVVGKKKRYPVFSAFDIDFVEAGDVGKVLTVKREEVVVGFPKKGEGTFTPSELNIAH”, the “soluble fraction (log2)” value was -1.18. With “HMSDTGQELHDALNMARRTLTILEEQAAGYTALTIPARLVLELEEKRKDVVRLETQIRSAATGTPG” the “soluble fraction (log2)” value was -0.649. In the case of “HMSDTLPRLLWNFQMAKRLDEMNGAEKRRYQLVLIHPQASEKERDYASSFAHQARMLGIEVAIRDS”, the “soluble fraction (log2)” value is reported as -0.395. With “HMSDVVFRINANGLNVSGLANGERVSVYDTTGKLVTTAVSTQDNGTLNLPLKQSGGIYIARTQSGVSFKFT” the “soluble fraction (log2)” value was -0.786. With “HMSDYKSYLQELVQTDKKSLSYNVVKETGPAHDKTFEVEVEVDGIIYAHGVGKSKKEAEQNAAKNAIMISA” the “soluble fraction (log2)” value was 0.3. For “HMSDYLGSLSHEEKMIFNHFDEDSSTIENMAKKTELKPELISQIFLNLELRGFLRQTEGGLYEKI”, the “soluble fraction (log2)” value was -0.43. With “HMSDYYEVLGVTRQADAEEIKRAYRRKARQLHPDVAGPGHEEEFKEVTVAYEVLSDPEKRQAYDLGGQDAL” the “soluble fraction (log2)” value was 0.0155. For “HMSEDAVKFRAAVEVENGLAQRNLNKNQAALILGVDRSYFTYIISGKKTPSPDMAKRIGLLLGFDWRVFYA”, the “soluble fraction (log2)” value was -1.89. With “HMSEEIKVPNFVGSTFEKAQALAQETGLEIARGEDVYSPDQEEGKITSQNPTADSVVSPGKLITVYVSKG” the “soluble fraction (log2)” value was 0.385. With “HMSEIKDRLREARRNKGLSQAGLSKLLGVSQASIAAIESGRNKRPTNLVSIAKALDVSPYWLETGK” the “soluble fraction (log2)” value was -0.229. For “HMSEITQTLSMIGKEVTLEIPDEKDKTKTTEVKGIVTEASFKDGTGKVKVNGEYYSIAYITSIRDT”, the “soluble fraction (log2)” value was at least 1.04. In the case of “HMSEIVEEQNTKLKQAVSKLSKRQQEVLYLKFEEGLDYEQISKIMDLKYQSVRNLVSTAIIKIKEH”, the “soluble fraction (log2)” value is reported as -2.72. For “HMSEKELTDLIERIKERRLKLEMSYQDLSDATGISKSTLQRYETGYIKKVPINQIEILAKALHTTPSYLMG”, the “soluble fraction (log2)” value was -0.411. In the case of “HMSEKIDINNSNELELKQLPLTNEQIKSLIEFRRLHGEIQNIYELKNIDFFNIEKVHELKAHIEIKKII”, the “soluble fraction (log2)” value is reported as -1.03. For “HMSELADDPVYTALEKAADKAGLQLTVRILNDLADAVLKRGKKKLTAAQAGKVIARAESELAKSRID”, the “soluble fraction (log2)” value was 0.00292. With “HMSELDASYLGQRVRYVSGFTETDPSEGLVEFRGSNWRARAEHPPLDHSGHWVIVKVESNTLWVEEKSN” the “soluble fraction (log2)” value was -1.57. With “HMSENEIDELRRRFAREAMALMERKGEEVSRTRLAAELSVARARIDAVFPEESDLLEAVTAEWFA” the “soluble fraction (log2)” value was -0.477. With “HMSENEVQAKVKEIVDRYAGDKSALIAILQDVQDEYRYLPKEALVSIQQQMNIPLSRVYEVATFYDAFS” the “soluble fraction (log2)” value was -0.556. With “HMSEPIYTQLKEILTQKIVNGEFPPGARLPSEYELTELYHISRSTVRLALKELEASGMIVRRRGKGTFVSS” the “soluble fraction (log2)” value was -2.39. In the case of “HMSEPRYRQLATILAQEIRSNHSAGDQLPSEQALAKRFEVNRHTVRRAVDELVAAGMVTRHQGWGTQVV”, the “soluble fraction (log2)” value is reported as -0.158. With “HMSEQGVITAKFASIVGNQNIQLVMFPDSVYLKGQVSSEEEKKRAETVASSLIQDRKIVNLIEFE” the “soluble fraction (log2)” value was -0.075. With “HMSEQIALQFAKAKQHHTGIALKGIEALELRYKGYTGKEIAALYHTSPKSVFSWISRAKQKLRQN” the “soluble fraction (log2)” value was -0.272. For “HMSEQLHALIDRLDDIPDDELKKNWPGTLRDLVDVISAELHRQGIEPAQAGMLARKVAAAQAGYMG”, the “soluble fraction (log2)” value was -0.486. With “HMSEQLKQIAERIKELRNIAGLGEEELAAKLDIPVDTYREYESGNVDIPVSFLYKISGMFNVELTAIL” the “soluble fraction (log2)” value was -1.1. In the case of “HMSEQLVGTVGHITVGTARTASPAEAKFLDAFEQPHYLLVEPIEPKDIFQQGDKVVLVKKQHHSWLATRYI”, the “soluble fraction (log2)” value is reported as -1.2. For “HMSEQTLEDVRRLIEHLPESQKEVVKMRYYQDLSFKEIADLKGISINTALGRMHYAINNMRKMAKEYGL”, the “soluble fraction (log2)” value was -1.94. For “HMSEQVQLQAQVEDDLIGKRLDQVVAQLFPDYSRSRLQGWIKDGSLTVDGESRRPRDKMMGGEVVRVEATL”, the “soluble fraction (log2)” value was 0.107. With “HMSEQVTMIDVEGKTETEAKKALEDLGLKVEITYESADAAAGTVIGQDVKAGSTVSEGSRVTLTVSGQ” the “soluble fraction (log2)” value was 0.528. With “HMSERQTGTVKWFNNAKGFGFITMADRPDDIFVHFRAIQGDGYRSLNEGEEVEFSLVEGPKGLQAEEVTK” the “soluble fraction (log2)” value was -0.0682. For “HMSESAGKAFDLLFYLAKAGETVSLARLSRETGMNKATALRYLNVLESKGVVERSKLGWTLGLSLFELGSK”, the “soluble fraction (log2)” value was -2.96.
